Experimental data reported in the supplement of paper PMC7125110.
± gives the standard error. Variants at the floor of the assay were thinned out.

B1: glmS ribozyme (parent)
chain: AUAAAAGCGCCAGAACUACAGAAAUGUAGUUGACGAGGAGGAGGUUUAUCGAAUUUUCGGCGGAUGCCUCCAAA

Columns and labels:
Settings in all cases: with glucosamine-6-phosphate
[1] = variants of: B1; assay: self-cleavage kobs at 40 uM GlcN6P; higher = faster cleavage; RNA array
How it was run: (§1)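 Glucosamine-6-phosphate, from 40 μM to 10 mM in HEPES/KCl/Mg(OAc)2 buffer, was flowed over sequenced MiSeq chips carrying barcoded ribozyme variants transcribed in situ by E. coli RNA polymerase. A hybridised Cy3 probe tracked the variants at 37 °C as tiles were imaged over ~14 h. kobs, kcat and KM were obtained by fitting normalised per-tile medians to exponential decays and then applying weighted Michaelis–Menten fits across concentrations.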

[2] = variants of: B1; assay: self-cleavage kobs at 160 uM GlcN6P; higher = faster cleavage; RNA array
How it was run: as §1

[3] = variants of: B1; assay: self-cleavage kobs at 640 uM GlcN6P; higher = faster cleavage; RNA array
How it was run: as §1

[4] = variants of: B1; assay: self-cleavage kobs at 2500 uM GlcN6P; higher = faster cleavage; RNA array
How it was run: as §1

[5] = variants of: B1; assay: self-cleavage kobs at 10000 uM GlcN6P; higher = faster cleavage; RNA array
How it was run: as §1

Variant	self-cleavage kobs at 40 uM GlcN6P [1]	self-cleavage kobs at 160 uM GlcN6P [2]	self-cleavage kobs at 640 uM GlcN6P [3]	self-cleavage kobs at 2500 uM GlcN6P [4]	self-cleavage kobs at 10000 uM GlcN6P [5]
G7C A12U G38U G40C U49G U56G	< 1e-05 s⁻¹	–	–	–	–
C8A G38A	< 1e-05 s⁻¹	< 1e-05 s⁻¹	< 1e-05 s⁻¹	< 1e-05 s⁻¹	< 1e-05 s⁻¹
G7U A14U	< 1e-05 s⁻¹	< 1e-05 s⁻¹	< 1e-05 s⁻¹	–	< 1e-05 s⁻¹
G7U A14G	< 1e-05 s⁻¹	< 1e-05 s⁻¹	< 1e-05 s⁻¹	–	< 1e-05 s⁻¹
C8A G41U	< 1e-05 s⁻¹	< 1e-05 s⁻¹	< 1e-05 s⁻¹	< 1e-05 s⁻¹	< 1e-05 s⁻¹
G7A C34A	< 1e-05 s⁻¹	< 1e-05 s⁻¹	< 1e-05 s⁻¹	< 1e-05 s⁻¹	< 1e-05 s⁻¹
G7C C67U	< 1e-05 s⁻¹	< 1e-05 s⁻¹	< 1e-05 s⁻¹	< 1e-05 s⁻¹	< 1e-05 s⁻¹
G7U A33U A52G	< 1e-05 s⁻¹	–	–	–	–
A6U G51A	< 1e-05 s⁻¹	–	–	–	< 1e-05 s⁻¹
A6U G7U C16G C34A	< 1e-05 s⁻¹	–	–	–	< 1e-05 s⁻¹
G7A C58U C68G	0.000285 ± 7.7e-05 s⁻¹	–	–	–	–
G7U C58G C68G	0.000149 ± 4.5e-05 s⁻¹	0.000633 ± 0.00028 s⁻¹	0.00042 ± 0.00015 s⁻¹	0.00158 ± 0.00066 s⁻¹	0.000116 ± 2.5e-05 s⁻¹
G7A A39G C58G	< 1e-05 s⁻¹	–	–	–	–
G7A C8G	< 1e-05 s⁻¹	< 1e-05 s⁻¹	< 1e-05 s⁻¹	< 1e-05 s⁻¹	< 1e-05 s⁻¹
G7A C8U	< 1e-05 s⁻¹	–	–	–	–
G7A C67G	< 1e-05 s⁻¹	–	< 1e-05 s⁻¹	< 1e-05 s⁻¹	–
A6U G44A C70U	< 1e-05 s⁻¹	–	–	–	–
G7C G35U U54G	< 1e-05 s⁻¹	–	–	< 1e-05 s⁻¹	< 1e-05 s⁻¹
G7A G40A A53G G60C C68U	< 1e-05 s⁻¹	–	< 1e-05 s⁻¹	< 1e-05 s⁻¹	–
C8A G40U C61U U69G	< 1e-05 s⁻¹	–	–	–	< 1e-05 s⁻¹
G7U G9C G35C A36U U49A U56A	< 1e-05 s⁻¹	–	–	–	–
C8A C34G	< 1e-05 s⁻¹	< 1e-05 s⁻¹	< 1e-05 s⁻¹	< 1e-05 s⁻¹	< 1e-05 s⁻¹
G7U G37A	< 1e-05 s⁻¹	–	–	–	< 1e-05 s⁻¹

Variant	self-cleavage kobs at 40 uM GlcN6P [1]	self-cleavage kobs at 160 uM GlcN6P [2]	self-cleavage kobs at 640 uM GlcN6P [3]	self-cleavage kobs at 2500 uM GlcN6P [4]	self-cleavage kobs at 10000 uM GlcN6P [5]
C8G A12C A15G U30G G38A U46C	< 1e-05 s⁻¹	–	–	–	< 1e-05 s⁻¹
A6G G40C	< 1e-05 s⁻¹	–	< 1e-05 s⁻¹	–	–
A6U U57G	< 1e-05 s⁻¹	–	–	–	–
G7A A52U A64G C71A	< 1e-05 s⁻¹	< 1e-05 s⁻¹	< 1e-05 s⁻¹	< 1e-05 s⁻¹	–
C8A A15G U54A	< 1e-05 s⁻¹	–	–	–	< 1e-05 s⁻¹
A6U C8G A33U C34G U69G	8.53e-05 ± 1.8e-05 s⁻¹	–	0.000181 ± 5.7e-05 s⁻¹	–	6.82e-05 ± 1.7e-05 s⁻¹
G7U U65C	< 1e-05 s⁻¹	< 1e-05 s⁻¹	< 1e-05 s⁻¹	< 1e-05 s⁻¹	< 1e-05 s⁻¹
G7U G63A	< 1e-05 s⁻¹	–	–	–	< 1e-05 s⁻¹
A6U G63U	< 1e-05 s⁻¹	< 1e-05 s⁻¹	< 1e-05 s⁻¹	< 1e-05 s⁻¹	–
G7A G38U C58A	< 1e-05 s⁻¹	–	–	–	< 1e-05 s⁻¹
G7U U54C	< 1e-05 s⁻¹	< 1e-05 s⁻¹	< 1e-05 s⁻¹	–	< 1e-05 s⁻¹
G7A A52C	< 1e-05 s⁻¹	< 1e-05 s⁻¹	< 1e-05 s⁻¹	< 1e-05 s⁻¹	< 1e-05 s⁻¹
G7C G38U C70G	< 1e-05 s⁻¹	–	–	–	–
C8A G38U C50G	4.1e-05 ± 2e-05 s⁻¹	–	–	–	–
G7A U31A	< 1e-05 s⁻¹	–	< 1e-05 s⁻¹	–	–
C8A A14G C58U	< 1e-05 s⁻¹	–	–	–	< 1e-05 s⁻¹
G7U A14U A48G U56C A64U G66U	< 1e-05 s⁻¹	–	–	–	< 1e-05 s⁻¹
C8A G40U	< 1e-05 s⁻¹	< 1e-05 s⁻¹	< 1e-05 s⁻¹	< 1e-05 s⁻¹	< 1e-05 s⁻¹
G7A G9U A48G	< 1e-05 s⁻¹	–	–	–	–
C8A G41U C50G	< 1e-05 s⁻¹	–	–	–	–
G7U C10G C68G	0.000171 ± 5.8e-05 s⁻¹	–	–	–	5.21e-05 ± 1.6e-05 s⁻¹
G7U U30G C50G C61A	0.000244 ± 8.9e-05 s⁻¹	–	–	–	0.000292 ± 7.4e-05 s⁻¹
G7U G9C C11G A12C U55A	< 1e-05 s⁻¹	–	–	–	< 1e-05 s⁻¹

Variant	self-cleavage kobs at 40 uM GlcN6P [1]	self-cleavage kobs at 160 uM GlcN6P [2]	self-cleavage kobs at 640 uM GlcN6P [3]	self-cleavage kobs at 2500 uM GlcN6P [4]	self-cleavage kobs at 10000 uM GlcN6P [5]
C8A G29U G60U	< 1e-05 s⁻¹	–	–	–	< 1e-05 s⁻¹
G7U G35U U46A C67U U69C	< 1e-05 s⁻¹	< 1e-05 s⁻¹	< 1e-05 s⁻¹	< 1e-05 s⁻¹	–
A6G G59A A64U	< 1e-05 s⁻¹	–	< 1e-05 s⁻¹	–	< 1e-05 s⁻¹
G7U C34A	< 1e-05 s⁻¹	< 1e-05 s⁻¹	< 1e-05 s⁻¹	–	< 1e-05 s⁻¹
C8A A53G	< 1e-05 s⁻¹	< 1e-05 s⁻¹	< 1e-05 s⁻¹	< 1e-05 s⁻¹	< 1e-05 s⁻¹
C8A G32U	< 1e-05 s⁻¹	< 1e-05 s⁻¹	< 1e-05 s⁻¹	–	< 1e-05 s⁻¹
A6G G41U C50G	< 1e-05 s⁻¹	–	–	< 1e-05 s⁻¹	< 1e-05 s⁻¹
A6U A33G	< 1e-05 s⁻¹	–	< 1e-05 s⁻¹	–	–
A6U A33U	< 1e-05 s⁻¹	–	< 1e-05 s⁻¹	< 1e-05 s⁻¹	< 1e-05 s⁻¹
A6U A15G U31G G41A	< 1e-05 s⁻¹	–	–	–	< 1e-05 s⁻¹
C8A G62U	< 1e-05 s⁻¹	< 1e-05 s⁻¹	–	–	5.53e-05 ± 1.6e-05 s⁻¹
C8A G9U	< 1e-05 s⁻¹	< 1e-05 s⁻¹	< 1e-05 s⁻¹	< 1e-05 s⁻¹	< 1e-05 s⁻¹
A6G G44U	< 1e-05 s⁻¹	–	< 1e-05 s⁻¹	< 1e-05 s⁻¹	< 1e-05 s⁻¹
C8A C10A C34U G60A	< 1e-05 s⁻¹	–	–	–	–
A6G G38U A39G G51A C68G C70U	7.83e-05 ± 3.2e-05 s⁻¹	–	–	–	–
G7A A48U U56G	< 1e-05 s⁻¹	< 1e-05 s⁻¹	< 1e-05 s⁻¹	–	< 1e-05 s⁻¹
G7U C10A G60U	< 1e-05 s⁻¹	< 1e-05 s⁻¹	–	< 1e-05 s⁻¹	–
A6G G32C C34G C71U	< 1e-05 s⁻¹	< 1e-05 s⁻¹	< 1e-05 s⁻¹	–	–
G7C G9C U31C G40A	< 1e-05 s⁻¹	–	–	–	< 1e-05 s⁻¹
C8A U45G U69C C71G	< 1e-05 s⁻¹	–	–	–	–
A6U A12U G43A U47G	< 1e-05 s⁻¹	–	–	–	–
G7U G9C	< 1e-05 s⁻¹	< 1e-05 s⁻¹	< 1e-05 s⁻¹	< 1e-05 s⁻¹	< 1e-05 s⁻¹
A6U C50G	4.82e-05 ± 1.8e-05 s⁻¹	6.77e-05 ± 2.7e-05 s⁻¹	–	0.000434 ± 0.00021 s⁻¹	2.57e-05 ± 1.3e-05 s⁻¹

Variant	self-cleavage kobs at 40 uM GlcN6P [1]	self-cleavage kobs at 160 uM GlcN6P [2]	self-cleavage kobs at 640 uM GlcN6P [3]	self-cleavage kobs at 2500 uM GlcN6P [4]	self-cleavage kobs at 10000 uM GlcN6P [5]
C8G A36U G37U A52U U54A	< 1e-05 s⁻¹	–	–	–	< 1e-05 s⁻¹
G7C G40C U54G G62A	< 1e-05 s⁻¹	–	–	–	–
G7U U45G	< 1e-05 s⁻¹	< 1e-05 s⁻¹	< 1e-05 s⁻¹	< 1e-05 s⁻¹	< 1e-05 s⁻¹
G7U U45C	< 1e-05 s⁻¹	< 1e-05 s⁻¹	< 1e-05 s⁻¹	< 1e-05 s⁻¹	< 1e-05 s⁻¹
G7C G51U	< 1e-05 s⁻¹	< 1e-05 s⁻¹	< 1e-05 s⁻¹	< 1e-05 s⁻¹	< 1e-05 s⁻¹
A6G U54G U57C	< 1e-05 s⁻¹	–	–	–	< 1e-05 s⁻¹
A6U G7U A15U U30G G40A	< 1e-05 s⁻¹	–	–	–	< 1e-05 s⁻¹
A6U G35C C61U	< 1e-05 s⁻¹	–	–	–	–
G7A C11U U30A	< 1e-05 s⁻¹	–	–	–	–
A6G U30G U54A C67G	< 1e-05 s⁻¹	–	–	–	< 1e-05 s⁻¹
G7U G62A	< 1e-05 s⁻¹	< 1e-05 s⁻¹	< 1e-05 s⁻¹	< 1e-05 s⁻¹	–
G7U G62C	< 1e-05 s⁻¹	< 1e-05 s⁻¹	< 1e-05 s⁻¹	< 1e-05 s⁻¹	< 1e-05 s⁻¹
A6G U57G	< 1e-05 s⁻¹	< 1e-05 s⁻¹	< 1e-05 s⁻¹	< 1e-05 s⁻¹	< 1e-05 s⁻¹
A6G U57A	< 1e-05 s⁻¹	< 1e-05 s⁻¹	< 1e-05 s⁻¹	–	–
G7C U49G	< 1e-05 s⁻¹	< 1e-05 s⁻¹	–	–	–
A6U A36G A64U	< 1e-05 s⁻¹	< 1e-05 s⁻¹	< 1e-05 s⁻¹	< 1e-05 s⁻¹	< 1e-05 s⁻¹
G7A U69G	0.000261 ± 4.3e-05 s⁻¹	–	7.58e-05 ± 3.5e-05 s⁻¹	–	0.000569 ± 0.00011 s⁻¹
G7U A12C G29C	< 1e-05 s⁻¹	< 1e-05 s⁻¹	< 1e-05 s⁻¹	< 1e-05 s⁻¹	–
G7U G38A	< 1e-05 s⁻¹	< 1e-05 s⁻¹	–	–	< 1e-05 s⁻¹
G7A A39C A52U G60A C67U	< 1e-05 s⁻¹	–	–	–	–
G7A A36C	< 1e-05 s⁻¹	< 1e-05 s⁻¹	–	–	< 1e-05 s⁻¹
G7A A36U	< 1e-05 s⁻¹	< 1e-05 s⁻¹	< 1e-05 s⁻¹	< 1e-05 s⁻¹	–
